Measurements: publication PMC5573372, “Solvent Assisted Tuning of Morphology of a Peptide-Perylenediimide Conjugate: Helical Fibers to Nano-Rings and their Differential Semiconductivity” (Scientific Reports, 2017)

Experiment: Solubility of P-1 in water and THF
Type: physicochemical
Settings: method not described

With `O=C(O)[C@H](Cc1ccccc1)NC(=O)[C@H](Cc1ccccc1)N1C(=O)c2ccc3c4ccc5c6c(ccc(c7ccc(c2c37)C1=O)c64)C(=O)N([C@@H](Cc1ccccc1)C(=O)N[C@@H](Cc1ccccc1)C(=O)O)C5=O` [P-1] the “solubility in THF” value (THF (good solvent)) was ~ 0.1 mM and the solubility (water (poor solvent)) was < 0.1 µM.
